3 molecules from paper PMC3547832, “Secondary Metabolism and Development Is Mediated by LlmF Control of VeA Subcellular Localization in Aspergillus nidulans” (PLoS Genetics, 2013) can be followed below.

In one assay the target is LaeA (Aspergillus nidulans, UniProt C8VQG9). Conditions: labelled compound; room temperature, UV on ice 30 min; GST-LaeA.
Assay [1] deals with T1, His6-VeA-S-tag (recombinant) (Aspergillus nidulans, UniProt C8VTV4 1-573).
T1 construct: VeA, Aspergillus nidulans; E. coli codon-optimized version obtained from Reinhard Fischer, EcoRI-XhoI fragment in pRSF-1b; source: E. coli BL21 (λDE3), purified (Ni-NTA); not shown: His6, N-terminal, kept; S-tag, C-terminal, kept
T1 sequence (looked up): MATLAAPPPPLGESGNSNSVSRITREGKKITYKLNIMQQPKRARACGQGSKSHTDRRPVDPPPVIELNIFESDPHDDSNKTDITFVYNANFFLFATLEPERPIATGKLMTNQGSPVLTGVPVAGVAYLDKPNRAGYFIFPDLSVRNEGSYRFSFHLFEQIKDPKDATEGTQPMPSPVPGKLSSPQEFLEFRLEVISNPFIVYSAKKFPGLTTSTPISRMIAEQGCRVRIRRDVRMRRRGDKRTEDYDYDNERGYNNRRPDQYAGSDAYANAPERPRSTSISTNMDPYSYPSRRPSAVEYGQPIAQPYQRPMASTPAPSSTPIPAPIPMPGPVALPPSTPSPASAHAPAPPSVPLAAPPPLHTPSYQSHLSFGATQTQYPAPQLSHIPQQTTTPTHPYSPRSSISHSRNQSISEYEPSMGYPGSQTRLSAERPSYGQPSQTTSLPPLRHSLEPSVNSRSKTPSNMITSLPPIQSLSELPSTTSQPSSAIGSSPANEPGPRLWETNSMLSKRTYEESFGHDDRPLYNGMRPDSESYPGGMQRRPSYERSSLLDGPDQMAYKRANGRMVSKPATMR
The experiment in a line: pull-down; 10 µg purified GST tagged protein, glutathione sepharose and purified His6-VeA-S-tag, 3 hours at 4°C in PBS buffer with 1 mM DTT, pH 7.3; anti-S-tag immunoblot. The note with it: both partners purified. A general note: A western blot detects proteins with antibodies after separation by electrophoresis.

For the molecule `C[S+](CC[C@H](N)C(=O)O)C[C@H]1O[C@@H](n2cnc3c(N)ncnc32)[C@H](O)[C@@H]1O` (stereo partly drawn) [S-adenosyl methionine], on LaeA, the “UV crosslinking of 3H-SAM, SDS-PAGE and tritium phosphor screen” value was “these results indicate that both LaeA and LlmF have the ability to bind SAM”.

B1: GST-VelB (recombinant) (natural protein, Aspergillus nidulans, UniProt C8VTS4 1-369, looked up)
chain: MYAVEDRAHSGHHPPPLSMDRIPPPSTMYPSSAGPSAMVSPAGQPEPESLSTVHDGRIWSLQVVQQPIRARMCGFGDKDRRPITPPPCIRLIVKDAQTQKEVDINSLDSSFYVVMADLWNADGTHEVNLVKHSATSPSISTAMSSSYPPPPHPTSSDYPASYQTNPYGQPVGQPVGQPVGYAGVGNYYGGSTQLQYQNAYPNPQAQYYQPMYGGMAQPQMPAAQPVTPGPGGMFTRNLIGCLSASAYRLYDTEDKIGVWFVLQDLSVRTEGIFRLKFSFVNVGKSVSDLPQSDIAEVINKGTAPILASTFSEPFQVFSAKKFPGVIESTPLSKVFANQGIKIPIRKDGVKGQGSRGRHSDEDDGLDNEY
notes: VelB, Aspergillus nidulans; GST fusion in pGEX; source: E. coli BL21 (λDE3), purified (glutathione sepharose 6B)
With B1, the binding result in assay [1] is “binds”.

B2: GST-LaeA (recombinant) (natural protein, Aspergillus nidulans, UniProt C8VQG9 1-374, looked up)
chain: MFEMGPVGTRLPAMTSPAHNHYSYHSPTSSDRGRSRQNSDAMDIQSITEREPATRYAVAGGPAPWNRNGSPSMSPMYSNNSERNQFHEENGRTYHGFRRGMYFLPCDEQEQDRLDIFHKLFTVARVSESLIYAPHPTNGRFLDLGCGTGIWAIEVANKYPDAFVAGVDLAPIQPPNHPKNCEFYAPFDFEAPWAMGEDSWDLIHLQMGCGSVMGWPNLYRRIFAHLRPGAWFEQVEIDFEPRCDDRSLDGTALRHWYDCLKQATAETMRPIAHSSRDTIKDLQDAGFTEIDHQIVGLPLNPWHQDEHERKVARWYNLAVSESIENLSLAPFSRVYRWPLERIQQLAADVKSEAFNKEIHAYNILHIYQARKPLR
notes: LaeA, Aspergillus nidulans, locus AN0807; GST fusion in pGEX; source: E. coli BL21 (λDE3), purified (glutathione sepharose 6B)
For B2, the binding result in assay [1] is on record as “binds”.
